To fix the notation:
B1: Transmembrane 4 L6 family member 5 (Homo sapiens), O14894 (parent)
chain: MCTGKCARCVGLSLITLCLVCIVANALLLVPNGETSWTNTNHLSLQVWLMGGFIGGGLMVLCPGIAAVRAGGKGCCGAGCCGNRCRMLRSVFSSAFGVLGAIYCLSVSGAGLRNGPRCLMNGEWGYHFEDTAGAYLLNRTLWDRCEAPPRVVPWNVTLFSLLVAASCLEIVLCGIQLVNATIGVFCGDCRKKQDTPH
partner: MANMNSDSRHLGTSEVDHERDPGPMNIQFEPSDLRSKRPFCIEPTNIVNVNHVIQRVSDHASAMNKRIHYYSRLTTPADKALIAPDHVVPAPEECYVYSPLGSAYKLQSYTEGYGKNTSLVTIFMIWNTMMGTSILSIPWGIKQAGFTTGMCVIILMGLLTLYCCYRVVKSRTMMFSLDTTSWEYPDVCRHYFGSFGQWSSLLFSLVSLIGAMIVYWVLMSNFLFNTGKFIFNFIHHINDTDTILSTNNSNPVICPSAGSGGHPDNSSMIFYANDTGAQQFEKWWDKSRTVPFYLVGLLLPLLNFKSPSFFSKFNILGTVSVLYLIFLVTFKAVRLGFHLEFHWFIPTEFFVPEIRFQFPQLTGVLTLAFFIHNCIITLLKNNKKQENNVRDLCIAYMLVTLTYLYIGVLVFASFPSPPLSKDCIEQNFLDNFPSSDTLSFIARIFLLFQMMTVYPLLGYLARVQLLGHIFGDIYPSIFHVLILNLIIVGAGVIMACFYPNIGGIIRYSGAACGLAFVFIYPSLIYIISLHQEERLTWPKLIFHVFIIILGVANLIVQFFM
B2: Transmembrane 4 L6 family member 5 (Homo sapiens), O14894 (parent)
chain: B1 chain
partner: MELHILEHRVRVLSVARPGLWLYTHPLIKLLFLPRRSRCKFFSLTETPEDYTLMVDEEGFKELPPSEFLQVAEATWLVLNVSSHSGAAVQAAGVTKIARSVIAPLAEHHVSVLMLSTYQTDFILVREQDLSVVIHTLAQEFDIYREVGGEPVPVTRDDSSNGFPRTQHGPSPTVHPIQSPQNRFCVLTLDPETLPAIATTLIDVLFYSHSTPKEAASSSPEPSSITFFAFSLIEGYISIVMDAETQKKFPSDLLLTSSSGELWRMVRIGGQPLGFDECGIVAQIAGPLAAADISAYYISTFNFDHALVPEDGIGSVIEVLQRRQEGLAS
B3: Transmembrane 4 L6 family member 5 (Homo sapiens), O14894 (parent)
chain: B1 chain

The variants in one assay derive from B1. As to conditions: with SLC38A9, Q8NBW4.
For W124A, the “effect of a mutation on the interaction” value is recorded as “with no effect”.

Variants of B2 are the subject of another assay. Conditions: with cast1_human CASTOR1, Q8WTX7.
Consider W124A, for which the “effect of a mutation on the interaction” value was “with no effect”.

Another assay covers variants of B3. As to conditions: with mtor_human MTOR.
For the variant W124A, the “effect of a mutation on the interaction” value is “with no effect”.

As to Y126S, the “effect of a mutation on the interaction” value is listed as “with no effect”.

For the variant N138A, the “effect of a mutation on the interaction” value was “with no effect”.
